Reference: patent publication US20260256915A1 (published 2026)

B1: nwTCR-2169 (TCR, V domains shown)
Valpha: SQQGEEDPQALSIQEGENATMNCSYKTSINNLQWYRQNSGRGLVHLILIRSNEREKHSGRLRVTLDTSKKSSSLLITASRAADTASYFCATLTLNDYKLSFGAGTTVTVRA
Vbeta: EAQVTQNPRYLITVTGKKLTVTCSQNMNHEYMSWYRQDPGLGLRQIYYSMNVEVTDKGDVPEGYKVSRKEKRNFPLILESPSPNQTSLYFCATQWASGSTDTQYFGPGTRLTVL
B2: nwTCR-2157 (TCR, V domains shown)
Valpha: QKEVEQNSGPLSVPEGAIASLNCTYSDRGSQSFFWYRQYSGKSPELIMFIYSNGDKEDGRFTAQLNKASQYVSLLIRDSQPSDSATYLCAVPGGTSYGKLTFGQGTILTVHP
Vbeta: DTAVSQTPKYLVTQMGNDKSIKCEQNLGHDTMYWYKQDSKKFLKIMFSYNNKELIINETVPNRFSPKSPDKAHLNLHINSLELGDSAVYFCASSQGISGNTIYFGEGSWLTVV
B3: nwTCR-2006 (TCR, V domains shown)
Valpha: AQSVTQLDSHVSVSEGTPVLLRCNYSSSYSPSLFWYVQHPNKGLQLLLKYTSAATLVKGINGFEAEFKKSETSFHLTKPSAHMSDAAEYFCVVSITGFQKLVFGTGTRLLVSP
Vbeta: GAVVSQHPSRVICKSGTSVKIECRSLDFQATTMFWYRQFPKQSLMLMATSNEGSKATYEQGVEKDKFLINHASLTLSTLTVTSAHPEDSSFYICSATEDNEKLFFGSGTQLSVL
B4: nwTCR-2081 (TCR, V domains shown)
Valpha: GEDVEQSLFLSVREGDSSVINCTYTDSSSTYLYWYKQEPGAGLQLLTYIFSNMDMKQDQRLTVLLNKKDKHLSLRIADTQTGDSAIYFCAESVGYGGSQGNLIFGKGTKLSVKP
Vbeta: KAGVTQTPRYLIKTRGQQVTLSCSPISGHRSVSWYQQTPGQGLQFLFEYFSETQRNKGNFPGRFSGRQFSNSRSEMNVSTLELGDSALYLCASSLEAGSFYEQYFGPGTRLTVT
B5: nwTCR-1906 (TCR, V domains shown)
Valpha: RKEVEQDPGPFNVPEGATVAFNCTYSNSASQSFFWYRQDCRKEPKLLMSVYSSGNEDGRFTAQLNRASQYISLLIRDSKLSDSATYLCVVTQAGTALIFGKGTTLSVSS
Vbeta: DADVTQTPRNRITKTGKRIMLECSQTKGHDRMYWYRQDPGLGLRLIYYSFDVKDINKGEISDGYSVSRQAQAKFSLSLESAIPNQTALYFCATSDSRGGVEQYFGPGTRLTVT
B6: nwTCR-2159 (TCR, V domains shown)
Valpha: QQPVQSPQAVILREGEDAVINCSSSKALYSVHWYRQKHGEAPVFLMILLKGGEQKGHDKISASFNEKKQQSSLYLTASQLSYSGTYFCGTESGRGSTLGRLYFGRGTQLTVWP
Vbeta: DSGVTQTPKHLITATGQRVTLRCSPRSGDLSVYWYQQSLDQGLQFLIQYYNGEERAKGNILERFSAQQFPDLHSELNLSSLELGDSALYFCASSPWTSGSYEQYFGPGTRLTVT
B7: nwTCR-1953 (TCR, V domains shown)
Valpha: DAKTTQPNSMESNEEEPVHLPCNHSTISGTDYIHWYRQLPSQGPEYVIHGLTSNVNNRMASLAIAEDRKSSTLILHRATLRDAAVYYCILRAGGSGDKLTFGTGTRLAVRP
Vbeta: DTEVTQTPKHLVMGMTNKKSLKCEQHMGHRAMYWYKQKAKKPPELMFVYSYEKLSINESVPSRFSPECPNSSLLNLHLHALQPEDSALYLCASSQDPFWGAGELFFGEGSRLTVL
B8: nwTCR-2170 (TCR, V domains shown)
Valpha: GQQLNQSPQSMFIQEGEDVSMNCTSSSIFNTWLWYKQDPGEGPVLLIALYKAGELTSNGRLTAQFGITRKDSFLNISASIPSDVGIYFCAGQASGTYKYIFGTGTRLKVLA
Vbeta: EAQVTQNPRYLITVTGKKLTVTCSQNMNHEYMSWYRQDPGLGLRQIYYSMNVEVTDKGDVPEGYKVSRKEKRNFPLILESPSPNQTSLYFCASSSGTSDEQYFGPGTRLTVT
B9: nwTCR-1954 (TCR, V domains shown)
Valpha: QKEVEQNSGPLSVPEGAIASLNCTYSDRGSQSFFWYRQYSGKSPELIMSIYSNGDKEDGRFTAQLNKASQYVSLLIRDSQPSDSATYLCAVLRSNDYKLSFGAGTTVTVRA
Vbeta: EAQVTQNPRYLITVTGKKLTVTCSQNMNHEYMSWYRQDPGLGLRQIYYSMNVEVTDKGDVPEGYKVSRKEKRNFPLILESPSPNQTSLYFCASSPGTSGNEQFFGPGTRLTVL

Target: T1, PRAME peptide on HLA-A*02:01 (human)
T1 peptide: SLLQHLIGL
Assay: multimer staining
B1: recognises. B2: recognises. B3: recognises. B4: recognises. B5: recognises. B6: recognises. B7: recognises. B8: recognises. B9: recognises.
